# Test results reported in patent US10245299B2, “Autoassembling peptides for the treatment of pulmonary bulla” (3-D MATRIX, LTD., priority 2014, dated 2019).
# How the values were obtained:
# pulmonary bulla = assay: Filling of pulmonary bulla cavity through connecting bronchioles before collapse; conditions: 1.0% RADA16 with 0.00585% indigo carmine
# Description: A method for pulmonary bullae treatment using peptide hydrogel systems distinct from the method discussed in Example 19 was tested. Here, the pulmonary bullae are generally filled prior to collapse.
# The pulmonary bulla cavity was filled with 1.0% RADA16 through the connecting bronchioles using an endotracheal tube inserted through the primary bronchus and into the lung. The bulla was then collapsed to remove the pocket of trapped air. 1.0% RADA16 mixed with 0.00585% indigo carmine was used here for visualization of the hydrogel spreading into the bullae cavity.
# pulmonary bullae = assay: Burst pressure of hydrogels as air sealants on collapsed pulmonary bullae of swine lungs
# Description: Swine lungs were obtained from freshly euthanized pigs. An endotracheal tube was inserted through the trachea and primary bronchus into the lung of interest. Pressure was supplied to the lungs with the use of a manual endotracheal intubation pump. The trachea was tied off to prevent air leakage around the tube. The other primary bronchus of the other lung was clamped to direct all airflow to the lung of interest. A manometer was used to measure the pressure of air directed into the lungs to induce expansion.
# The self-assembling peptide hydrogels were comprised of Ac-RADARADARADARADA-NH2 (SEQ ID NO: 1) (i.e. RADA16) and Ac-IEIKIEIKIEIKI-NH2 (SEQ ID NO: 2) (i.e. IEIK13) with RADA16 used alone or mixed with calcium chloride. If alone, the peptides were reconstituted in deionized water. If, however the peptides were reconstituted with a salt solution, the peptides were reconstituted first in deionized water, and subsequently, a 2× solution of calcium chloride at a previously decided concentration which was mixed in at a 1:1 ratio.
# Pulmonary bullae, as depicted in FIG. 25, are naturally occurring weak areas of the pleura. Prior to application of the hydrogels, the bullae were identified and collapsed using a 16 G needle. […]
# [1] = Rheology of peptides mixed with cation/anion solutions; assay type: physicochemical
# Description: In a rheological comparison of 2.5% RADA16 and 2.5% RADA16+NaCl, KCl, and CaCl2, solutions of 0.5% RADA16 mixed with 0.005, 0.05, 0.125, 0.25, 0.5, and 1 M NaCl, KCl, and CaCl2 were prepared. The anion, chloride (Cl−), was kept the same to observe the effect of the cations, sodium (Na+), potassium (K+), and calcium (Ca2+). FIG. 21 provides a basic understanding of how varying the cations of a salt solution effects the viscoelastic properties and the stiffness of self-assembling peptides. […] This should be because Ca has […] higher ionic strength than Na and K at the same molar concentrations. Therefore, influence of salts on the peptide solution is more related to their ionic strength rather than their molar concentration, as shown in FIGS. 17-18 and Table 2a-c. In some embodiments, there is a correlation between the properties of the peptide solutions with salts based on the concentration of the salts.
# Rheological measurements of stiffness of 2.5% RADA16 and 2.5% RADA16+0.25 M CaCl2 was evaluated.
# Rheological measurements of reversibility of 0.5% RADA16 solution with +0.125, 0.25, and 0.5 M CaCl2 were evaluated. Solutions of 0.5% RADA16 mixed with 0.125, 0.25, and 0.5 M CaCl2 were prepared. The structure of the self-assembled peptide solution were disrupted thoroughly by application of mechanical stress through vortexing and sonication. The mixtures were placed at room temperature for 48 hours to allow self-assembly to take place. […] FIG. 23a presents raw rheological data of the peptide solution with salts and the perturbed peptide solution while FIG. 23b provides a comparison of stiffness of the control peptide solution and the perturbed peptide solution.
# Rheological measurements of gelation kinetics of 0.5% RADA16+NaCl, KCl, and CaCl2 were evaluated. A solution of 0.5% RADA16 was prepared and gelation kinetics were observed by treatment with several cations (e.g. Na, […], K) and anions (e.g. Cl, CO3, PO4, SO4). It was determined how long it will take for the peptide mixtures to gel and how to control that gelation time by varying the cation/anion type and concentration. […] In vivo and in vitro qualitative experiments and the resulting observations were supportive of these conclusions.
# The two gels were: (1) a combination of the self-assembling peptide with a well-known cation/anion solution, Ringer's Solution (pH 5.3), used in the medical field and (2) a combination of the self-assembling peptide with a well-known contrast agent, indigo carmine, which is a dye solution containing sulfate (anion) and sodium (cation) ions. Indigo carmine contains indigoindisulfonate sodium (C16H8N2Na2O8S2), water, and sodium citrate […] for pH adjustment. Using indigo carmine powder, a 1% solution was prepared for use in experimentation. This corresponds to 10 mg/1 ml of water. The concentration of indigo carmine solution used in experimentation was 0.00585% in water.
# The rheological comparisons of these mixtures and the visualization of the gels can be observed in FIG. 24a-24c. […] The concentration of the contrast agent or cation/anion mixture and peptide hydrogel that were mixed were based on an understanding of using cations and anions as described herein. […] FIG. 24C presents a comparison of stiffness of RADA16 and RADA16 mixed with Ringer's Solution.
# [2] = Rheological properties (storage moduli) of 1% peptides before and after DMEM treatment for 2 minutes; assay type: physicochemical; conditions: peptides 1%, compared between peptides
# Description: The effects of Dulbecco's modified Eagle's medium (DMEM) (pH 7.4) on the rheological properties of IEIK13, KLD12, and PuraMatrix® were evaluated on a rheometer (AR500, TA Instruments) with 40 mm plates. DMEM is generally a cell culture medium that contains 6.4 g/L of NaCl, 3.4 g/L NaHCO3 (sodium bicarbonate), minor amounts of other salts, various amino acids, and 4.5 g/L of glucose. The pH level of DMEM is generally 7.2±0.2 and the osmolality is 335±30 mOsm/Kg H2O; both measurements are close to human physiological fluids such as blood.
# Peptide solutions (1%) were kept at 4° C. for at least 48 hours before testing. To perform the experiment, 1 mL of peptide solution was gently pipetted and placed on the plate of the rheometer. 2 mL of DMEM solution was gently added around the peptide solution. The peptide solution was treated with DMEM for two minutes, then the media was removed, and the plates were placed at a measuring geometry gap at around 450 μm. Measurements were performed at 37° C. after 2 min of relaxation time. Frequency tests were performed from 1 rad/s to 100 rad/s at 1 Pa of oscillation stress.
# The rheological properties of the peptides (1%) were compared before and after DMEM treatment for 2 minutes, as shown in FIG. 1A. […]
Substance,filling of bullae cavity through the connecting bronchioles (pulmonary bulla),burst pressure compared among formulations (pulmonary bullae; 2.5% RADA16 mixed with 0.250 M CaCl2),"filling of collapsed bullae cavity, histological analysis (pulmonary bullae; 2.5% RADA16 with CaCl2)",gelation kinetics by cation/anion type ([1]; 0.5% RADA16),"reversibility after perturbation ([1]; 0.5% RADA16 with CaCl2 within the optimal salt concentration range, vortexing and sonication, 48 hours at room temperature)",stiffness with added CaCl2 ([1]; 2.5% RADA16 vs 2.5% RADA16 with CaCl2),"effect of cations on stiffness ([1]; RADA16 mixed with 0.005-1 M NaCl, KCl, and CaCl2, same molar concentrations)",mechanical properties of mixed gel ([1]; RADA16 mixed with Ringer's Solution (pH 5.3)),fold increase of storage modulus after DMEM treatment [2],mechanical properties of mixed gel ([1]; 1.5% IEIK13 mixed with 0.00585% indigo carmine)
Arg-Ala-Asp-Ala-Arg-Ala-Asp-Ala-Arg-Ala-Asp-Ala-Arg-Ala-Asp-Ala [PuraMatrix®],completely fill the bullae cavity,best burst pressure,entirely filled the pulmonary bullae cavity,Chlorine showed the quickest gelation and sulfate showed the slowest gelation,remained reversible,noticeable increase in stiffness,Ca provided the best enhancement of stiffness,A stiffer gel with faster gelation kinetics that maintains reversibility,,
Ile-Glu-Ile-Lys-Ile-Glu-Ile-Lys-Ile-Glu-Ile-Lys-Ile [IEIK13],,,,,,,,,lower-fold increase of storage modulus than weaker peptide solutions,"maintains stiffness, reversibility, and gelation kinetics"
